Reference: US20230331862A1 (SHANGHAI GENBASE BIOTECHNOLOGY, published 2023)
Numbering of substitutions follows the chain as printed.

T1: recombinant CEACAM5 antigen (Sinobiological, 11077-H08H) (UniProt P06731 35-685)
T1 construct: Bought protein; also called CEACAM5-His recombinant protein; CEACAM5-His antigen; not shown: His tag
T1 sequence (looked up): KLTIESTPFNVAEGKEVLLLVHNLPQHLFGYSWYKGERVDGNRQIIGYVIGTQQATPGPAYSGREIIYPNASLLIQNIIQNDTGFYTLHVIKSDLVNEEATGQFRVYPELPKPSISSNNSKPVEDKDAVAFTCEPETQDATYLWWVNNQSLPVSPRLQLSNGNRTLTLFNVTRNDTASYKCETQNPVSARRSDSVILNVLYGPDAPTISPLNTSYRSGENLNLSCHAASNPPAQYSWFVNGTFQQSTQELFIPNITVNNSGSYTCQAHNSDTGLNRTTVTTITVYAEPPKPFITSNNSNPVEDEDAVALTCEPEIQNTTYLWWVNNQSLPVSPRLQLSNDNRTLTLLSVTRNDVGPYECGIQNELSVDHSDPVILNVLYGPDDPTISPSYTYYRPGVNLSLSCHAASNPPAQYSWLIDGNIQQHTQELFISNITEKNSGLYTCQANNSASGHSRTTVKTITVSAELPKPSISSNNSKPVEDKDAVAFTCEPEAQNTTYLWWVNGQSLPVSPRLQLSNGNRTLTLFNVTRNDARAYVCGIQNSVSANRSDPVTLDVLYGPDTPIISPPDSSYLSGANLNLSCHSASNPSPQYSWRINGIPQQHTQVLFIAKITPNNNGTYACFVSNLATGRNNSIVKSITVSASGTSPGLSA

T2: CEACAM5 (CD66e) on tumour cells (human, UniProt P06731 35-685, glycosylated (natural, as on tumour cells))
T2 construct: whole, on cells; One molecule for CEACAM5 on all three cell lines; the cell line is named under assay; also called natural CEACAM5 antigen; Lovo cells
T2 sequence (looked up): T1 sequence (looked up)

B1: M7 (11B6) chimeric recombinant antibody (antibody, V domains shown)
VH: EVQLQQSGAELVRPGASVKLSCTVSGFNIKDDYMHWVKQRPEQGLEWIGWIDPENGDTEYASKFQGKATITADTSSNSAYLQLSSLTSEDTAVYYCTFIYYVNPHYYAMDYWGQGTSVTVSS
VL: QIVLTQSPAIMSASPGEKVTITCSATSSVSYMHWFQQKPGTSPKLWIYSTSNLASGVPARFSGSGSGTSYSLTISRVEAEDAATYYCQQRSSYPLTFGAGTKLELK
B2: Humanized antibody hAb-013 (antibody, V domains shown)
VH: EVQLVESGGGLVQPGGSLRLSCAASGFTFTDYYMDWVRQAPGKALEWVGFTRNKVNGDTTEYAASVKGRFTISRDDSKNSLYLQMNSLKTEDTAVYYCARDKGIAYYFDYWGQGTLVTVSS
VL: QIVLTQSPATLSASPGERATLSCRASSSVSYIHWYQQKPGQSPRPLIYGTSNLASGVPARFSGSGSGTDFTLTISSLEPEDAAVYYCQQWSSNLSTFGGGTKVEIK
notes: also called hM19-11
B3: Humanized antibody hAb-006 (antibody, V domains shown)
VH: B2 VH with D35N, A44G, V48L, T51I, A63S, D76I
VL: DIVLSQSPGTLSLSPGERATLSCRASSSVSYIHWYQQKPGQAPRPWIHGTSNLASGIPDRFSGSGSGTDYTLTISRLEPEDFAVYYCQQWSSNLSTFGGGTKVEIK
notes: also called hM19-4
B4: Humanized antibody hAb-009 (antibody, V domains shown)
VH: B2 VH with D35N, V48L, T51I
VL: B2 VL with Q1E, S27Q, L46W, Y48H, S55T
notes: also called hM19-7
B5: Humanized antibody hAb-010 (antibody, V domains shown)
VH: B2 VH with T51I
VL: B2 VL with Q1E, L53R, S55T
notes: also called hM19-8
B6: Humanized antibody hAb-016 (antibody, V domains shown)
VH: B2 VH
VL: B2 VL with Q1E, A9G, A59D, S76R
notes: also called hM19-14
B7: Humanized antibody hAb-003 (antibody, V domains shown)
VH: B2 VH with Y33F, D35N, F50Q, T51M, A64E, K67E
VL: DIQMTQSPSSLSASVGDRVTITCRASSSVSYIHWYQQKPGKSPKPLIYGTSNLASGVPSRFSGSGSGTDFTLTISSLQPEDAATYYCQQWSSNLSTFGQGTKLEIK
notes: also called hM19-1
B8: Humanized antibody hAb-017 (antibody, V domains shown)
VH: B2 VH
VL: B2 VL with Q1E, T50A
notes: also called hM19-15
B9: Humanized antibody hAb-005 (antibody, V domains shown)
VH: B2 VH with Y33T, D35S, T51I, A63S, A64D, K67E, D76N, S80T, K89R, T90A
VL: B7 VL with M4L, L46W, F70Y, L103V
notes: also called hM19-3
B10: M7 (11B6), mouse hybridoma antibody (antibody, V domains shown)
VH: B1 VH
VL: B1 VL
notes: Hybridoma supernatant, detected with anti-mouse Fc
B11: M17 (6A8), mouse hybridoma antibody (antibody, V domains shown)
VH: EVQLQQSGAELVRPGASVKLSCTASGFNIKDDYMHWVKQRPEQGLEWIGWIDPENGDTEYASKFQGKATITADTSSNTAYLLLSSLTSEDTAVYYCTTIYYYGSRGAMDYWGQGTSVTVSS
VL: B1 VL with T26S, S49T, N52T, S71F, V77M, Q88H
notes: as for B10
B12: M18 (7G1), mouse hybridoma antibody (antibody, V domains shown)
VH: QIQLVQSGPELKKPGETVKISCKASGYTFTTYGMTWVKQAPGKGLKWMGWINTYSGVPTYIDDFKGRFAFSLETSASTAYLQINNLKNEDTATYFCGRKDLLGFMDYWGQGTSVTVSS
VL: DIQMTQSPSSLSASLGGKVTITCKTSQDINKFMAWYQHKPGKGPRLLIRYTSTLQPGIPSRFSGSGSGRDYSFSIRNLEPEDIATYYCLQYDDLTWTFGGGTKLEI
notes: as for B10

target: T1, recombinant CEACAM5 antigen …; test: ELISA, coated recombinant CEACAM5-His 1 µg/ml, anti-human IgG Fc-HRP
Experimental: The recombinant CEACAM5 antigen (Sinobiological, 11077-H08H) was diluted to 1 μg/ml with DPBS solution, added to a 96-well plate, 100 μl per well, and coated overnight at 2-8° C.; the coating solution was discarded, washing was performed twice with PBS solution, PBS solution containing 2% BSA was added, and blocked at room temperature for 2 hours; the blocking solution was discarded, the antibody diluted in concentration gradient was added, and incubated at 37° C. for 1 hour; the antibody solution was discarded, and washing was performed for 4 times with PBS solution containing 0.05% Tween 20 (PBST solution); anti-human IgG Fc-HRP secondary antibody was added and incubated at 37° C. for 30 minutes; washing was performed for 4 times with PBST solution, TMB chromogenic substrate was added, color development was performed for 5-10 minutes, and the reaction was terminated with equal volume of 1M H₂SO₄; the absorbance at 450 nm was read on a microplate reader.

Row | EC50 [µg/mL] | Binder
1 | 0.008 | B1

target: T2, CEACAM5 (CD66e) on tumour cells; test: flow cytometry on KATO3 cells, anti-human IgG Fc-APC
Experimental: (§1) After the cells were digested with TrypLE, they were centrifuged and resuspended in DPBS solution containing 2% BSA (FACS buffer solution, 4° C.), and added into a U-bottom 96-well plate, 5×10⁵/100 μl/well, and antibody diluted in concentration gradient was added, incubated at 4° C. for 1 hour, the supernatant was discarded after centrifugation; 100 μl of solution containing anti-human IgG Fc-APC secondary antibody was added and incubated at 4° C. for 1 hour, washing was performed once with FACS buffer, resuspending was performed in 200 μl FACS buffer, and the fluorescence signal value was read on BD Cantoll.

Row | EC50 [µg/mL] | Binder
2 | 2.6 | B1

target: T2, CEACAM5 (CD66e) on tumour cells; test: flow cytometry on LS174T cells, anti-human IgG Fc-APC
Experimental: as §1

Row | EC50 [µg/mL] | Binder
3 | 1.9 | B1

target: T2, CEACAM5 (CD66e) on tumour cells; test: competition by flow cytometry on KATO3 cells; competitor mouse M19 (m2F4) at 1 µg/ml, detected with anti-mouse IgG Fc-APC
Experimental: KATO3 cells (high expression of CEACAM5) were cultured in RPMI1640 medium containing 10% FBS. After the cells were digested with TrypLE trypsin, they were centrifuged and resuspended in DPB S solution containing 2% BSA (FACS buffer, 4° C.), and added a U-bottom 96-well plate, 5×10⁵/100 μl/well, the mouse monoclonal antibody M19 antibody (m2F4) was added to 1 μg/ml and the humanized antibody diluted in gradient (50 μg/ml, 3-fold dilution) was added, then incubated at 4° C. for 1 hour, the supernatant was discarded after centrifugation; 100 μl of solution containing anti-mouse IgG Fc-APC secondary antibody was added to each well and incubated at 4° C. for 1 hour, washing was performed once with FACS buffer, resuspending was performed in 200 μl FACS buffer, and the fluorescence signal value was read on BD C6 plus.

Row | Emax Inhibition, % [%] | IC50 [µg/mL] | Binder
4 | 89 | 5.2 | B2
5 | 47.2 | 6.9 | B3
6 | 62.7 | 2.7 | B4
7 | 75 | 2.3 | B5
8 | 73.2 | 6.4 | B6
9 | 51.3 | 3.9 | B7
10 | 73.9 | 4.5 | B8

target: T2, CEACAM5 (CD66e) on tumour cells; test: flow cytometry on KATO3 cells, anti-human IgG Fc-APC; remark: another data set of the same source
Experimental: KATO3 cells (high expression of CEACAM5) were cultured in RPMI1640 medium containing 10% FBS. After the cells were digested with TrypLE trypsin, they were centrifuged and resuspended in DPBS solution containing 2% BSA (FACS buffer, 4° C.), and added to a U-bottom 96-well plate, 5×10⁵/100 μl/well, the antibody diluted in concentration gradient was added, incubated at 4° C. for 1 hour, the supernatant was discarded after centrifugation; 100 μl of solution containing anti-human IgG Fc-APC secondary antibody was added to each well and incubated at 4° C. for 1 hour, then washing was performed with FACS buffer once, resuspending was performed in 200 μl of FACS buffer, and the fluorescence signal value was read on BD C6 plus.

Row | EC50 [µg/mL] | Emax [%] | Binder
11 | 12.7 | 49.3 | B2
12 | 3250 | 9.1 | B9
13 | 5.7 | 118 | B3
14 | 1.8 | 109 | B4
15 | 1.3 | 60.6 | B5
16 | 3.2 | 48.4 | B6
17 | 2.7 | 85.1 | B7
18 | 2.2 | 57.7 | B8

target: T2, CEACAM5 (CD66e) on tumour cells; test: hybridoma supernatant on Lovo cells, anti-mouse Fc-FITC, Celigo imaging
Experimental: Lovo cells and Lovo CEA KO cells were inoculated in 96-well plates, 10⁴ per well, and cultured overnight, 1-10 μl of hybridoma supernatant was added to Lovo/Lovo CEA KO cell culture plates, incubated for 1 hour, the supernatant was discarded, anti-mouse Fc-FITC fluorescent secondary antibody was added, incubated for 1 hour, the supernatant was discarded, DPBS solution containing 2% BSA was added, the fluorescent signals and FITC staining areas were read and analyzed in Celigo.

Row | Lovo binding percentage [%] | Binder
19 | 54.6 | B10
20 | 34.7 | B11
21 | 89.5 | B12

target: T1, recombinant CEACAM5 antigen …; test: ELISA, coated recombinant CEACAM5-His 1 µg/ml, anti-human IgG Fc-HRP; remark: another data set of the same source
Experimental: Recombinant CEACAM5 antigen (Sinobiological, 11077-H08H) was diluted to 1 μg/ml with DPB S solution, add into a 96-well plate, 100 μl per well, and coated overnight at 2-8° C.; the coating solution was discarded, washing was performed twice with PBS solution, PBS solution containing 2% BSA was added, and blocking was performed at room temperature for 2 hours; the blocking solution was discarded, the humanized antibody diluted in concentration gradient was added, and incubated at 37° C. for 1 hour; the antibody solution was discarded, and washing was performed for 4 times with PBS solution containing 0.05% Tween 20 (PBST solution); the anti-human IgG Fc-HRP secondary antibody was added and incubated at 37° C. for 30 minutes; washing was performed for 4 times with PBST solution, TMB chromogenic substrate was added, and color development was carried out for 5-10 minutes, then the reaction was terminated by adding equal volume of 1M H₂SO₄; the absorbance at 450 nm was read on a microplate reader.

Row | EC50 [µg/mL] | binding result | Binder
22 | 6.1 |  | B2
23 |  | no binding | B9
24 | 3.11 |  | B3
25 | 2.87 |  | B4
26 | 3.56 |  | B5
27 | 4.32 |  | B6
28 | 3.69 |  | B7
29 | 7.05 |  | B8
